For this data set, the target named is p38 MAPK, Q16539.
Sequence of p38 MAPK, Q16539 (Q16539 2-360): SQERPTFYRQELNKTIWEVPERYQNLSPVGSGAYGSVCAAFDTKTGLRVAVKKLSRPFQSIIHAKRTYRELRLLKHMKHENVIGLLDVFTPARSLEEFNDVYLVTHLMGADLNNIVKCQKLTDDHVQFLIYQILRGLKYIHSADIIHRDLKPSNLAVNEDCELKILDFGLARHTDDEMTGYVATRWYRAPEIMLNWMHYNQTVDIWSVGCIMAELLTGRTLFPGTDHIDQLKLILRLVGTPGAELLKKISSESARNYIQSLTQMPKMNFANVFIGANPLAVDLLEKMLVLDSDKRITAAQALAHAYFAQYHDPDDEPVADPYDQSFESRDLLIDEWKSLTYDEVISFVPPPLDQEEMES

B1: MKK3b (WT) (protein)
chain: MESPASSQPASMPQSKGKSKRKKDLRISCMSKPPAPNPTPPRNLDSRTFITIGDRNFEVEADDLVTISELGRGAYGVVEKVRHAQSGTIMAVKRIRATVNSQEQKRLLMDLDINMRTVDCFYTVTFYGALFREGDVWICMELMDTSLDKFYRKVLDKNMTIPEDILGEIAVSIVRALEHLHSKLSVIHRDVKPSNVLINKEGHVKMCDFGISGYLVDSVAKTMDAGCKPYMAPERINPELNQKGYNVKSDVWSLGITMIEMAILRFPYESWGTPFQQLKQVVEEPSPQLPADRFSPEFVDFTAQCLRKNPAERMSYLELMEHPFFTLHKTKKTDIAAFVKEILGEDS
For B1, the “p38 phosphorylation (western blot using anti-phospho-p38 antibodies)” value was “in MKK3b (WT)-infected cells, the basal level of phosphorylated p38 protein dramatically increased compared with the basal level in cells infected with vector (TICD8)”.

The record behind these values is patent publication US20050170434.
